Laboratory results from patent publication US6602687B1, “DNA encoding human ciliary neurotrophic factor and method for producing the protein encoded thereby” (Regeneron Pharmaceuticals, Inc., priority 1989, dated 2003).

Key:
Type in all cases: cell-based
[1] = tested on: E18-19 rat hippocampal neurons; experiment: Neurofilament protein in hippocampal cultures
Experimental: (§1) Hippocampi were dissected from E18-19 rat embryos of Sprague-Dawley rats, and collected in F10 medium. The tissues were minced, rinsed twice with F10 medium (Gibco) and trypsinized with 0.25% trypsin (Gibco) for 20 minutes at 37° C. Trypsin was inactivated by the addition of a serum-containing medium composed of minimal essential medium (MEM) supplemented with fetal calf serum (FCS, 10%), glutamine (2 mM), penicillin (25 U/ml) and streptomycin (25 ug/ml). Dissociated cells obtained by gentle trituration were collected and centrifuged at low speed (500 rpm) for 30 seconds. The centrifugation was repeated twice, and the cell pellets were then resuspended in serum-containing medium. The cells were then plated onto 6 mm wells or 35 mm dishes that were coated with polyornithine (10 ug/ml) and laminin (10 ug/ml). In most of the experiments, the cells were plated at a low density of approximately 71,000 cells/cm^2. Five to six hours following the plating of cells, medium was changed to a serum-free medium containing 1% N3 and penicillin-streptomycin (25 units/ml and 25 ug/ml, respectively), at which time CNTF was added. Medium was changed every three to four days, with re-addition of the factor.
Neurofilament protein was quantitated according to the method of Doherty et al. (1984, J. Neurochem. 42:1115-1122), as is described in Section 14.1.3.
The CNTF used in all assays was recombinant rat CNTF, expressed and purified as described in Example Section 12 supra.

[2] = tested on: Mediodorsal (MD) spinal cord neurons; experiment: E14 rat mediodorsal spinal cord neuron cultures in defined medium
Excerpt: Sprague-Dawley rats (HSD) were used for all experiments. Pregnant rats were sacrificed by carbon dioxide asphyxiation, and the embryos were rapidly removed and placed in ice-cold Puck's saline G for further dissection.
Spinal cords were removed aseptically from rat embryos on the 14th day of gestation. The spinal cord was severed caudal to the bulb, freed of sensory ganglia and meninges. The cord was then subdivided into ventral and mediodorsal segments for separate cultures. The cord tissues were minced into small pieces and mechanically dissociated by trituration through a Pasteur pipet in defined culture medium consisting of 50% basal medium Eagle (BME; Gibco) and 50% Ham's nutrient mixture F12 (Gibco) supplemented with glucose (33 mM), glutamine (2 mM, NaHCO3 (15 mM), HEPES (10 mM), insulin (25 μg/ml), transferrin (100 μg/ml) putrescine (60 μM), progesterone (20 nM), Na selenite (30 nM), penicillin G (0.5 μg/ml), streptomycin (0.5 μg/ml), and bovine serum albumin (2.5 μg/ml). Trituration was repeated twice and the supernatants were pooled and filtered through a nylon (Nitex, Tetko) filter (40 μm). Total cell number yielded was determined by hemocytometer counting in the presence of trypan blue. Dissociated ventral cells were then plated at a density of 0.5 million cells/35 mm dish coated with poly-D-lysine (10 μg/ml). Dissociated mediodorsal cells were plated at a density of 1.5 million/35 mm dish coated with poly-D-lysine (10 μg/ml), poly-L-ornithine (10 μg/ml), or poly-L-ornithine with laminin (5 μg/ml). Treatments to these cultures were added at the time of plating. Cultures were maintained at 37° C. in a 95% air/5% CO2 atmosphere at nearly 100% relative humidity. Culture medium was changed every three to four days.

[3] = tested on: E18-19 rat hippocampal neurons; experiment: GAD enzyme activity in hippocampal cultures; conditions: recombinant rat CNTF 0.1 ng/ml; 8 days
Experimental: as §1, with “Five to six hours following the plating of cells, medium was changed to a serum-free medium containing 1% N3 and penicillin-streptomycin (25 units/ml and 25 ug/ml, respectively), at which time CNTF was added. Medium was changed every three to four days, with re-addition of the factor.” left out
GAD enzyme activity was determined according to the method of Kimura and Kuriyama (1975, Jpn J. Pharm. 25:189-195) by measuring the release of ^14CO2 from L-[1-^14C] glutamic acid. […] The incubation was then continued for another 60 minutes. ^14CO2 released was trapped in Hyamine base solution, and was counted. […]

B1: CNTF: ciliary neurotrophic factor; recombinant rat CNTF in Sections 10, 15, 17, purified rat sciatic nerve CNTF in Section 11; see endpoint conditions (protein, UniProt P20294 1-200, looked up)
Ciliary neurotrophic factor: MAFAEQTPLTLHRRDLCSRSIWLARKIRSDLTALMESYVKHQGLNKNINLDSVDGVPVASTDRWSEMTEAERLQENLQAYRTFQGMLTKLLEDQRVHFTPTEGDFHQAIHTLMLQVSAFAYQLEELMVLLEQKIPENEADGMPATVGDGGLFEKKLWGLKVLQELSQWTVRSIHDLRVISSHQMGISALESHYGAKDKQM
In the case of B1, the “effect on neurofilament protein, CNTF added on the third day and cells treated for 8 days” value ([1]; CNTF 10 ng/ml) is reported as “much reduced”, the “CNTF-induced increase in neurofilament protein, addition delayed by 3 days” value ([1]; CNTF 10 ng/ml, measured on the eighth day) is reported as “similarly diminished” and the “maximal increase in neurofilament protein” value ([1]; recombinant rat CNTF 10 ng/ml, day 8) is reported as “approximately 5 fold”. The “concentration at which neurofilament protein reaches a plateau” value ([1]; recombinant rat CNTF, 8 days) was 0.1 ng/mL, the “survival of MD neurons” value ([2]; 20 ng recombinant rat CNTF in 2 μl E. coli extract per ml at plating, by 48 hours) was “increased survival” and the μg protein dish ([2]; CNTF 2 μl/ml (recombinant rat, E. coli extract), NGF 50 ng/ml at plating, day 7, Bradford) was 120 μg protein dish. For the same molecule, the “protein/dish relative to untreated control and NGF-treated cultures” value ([2]; recombinant rat CNTF in E. coli extract, day 7) was 6 times and the “maximal increase in GAD enzyme activity” value [3] was 3.8 fold.
